Experimental data published in patent US20220249563A1 (LEGEND BIOTECH IRELAND, published 2022).

T1: extracellular domain of human DLL3 protein (aa27-466) having an N-terminal FLAG tag (AdipoGen, AG-40B-0151) (human, UniProt Q9NYJ7 27-466)
T1 construct: range 27-466; also called DLL3 ECD protein
T1 sequence (looked up): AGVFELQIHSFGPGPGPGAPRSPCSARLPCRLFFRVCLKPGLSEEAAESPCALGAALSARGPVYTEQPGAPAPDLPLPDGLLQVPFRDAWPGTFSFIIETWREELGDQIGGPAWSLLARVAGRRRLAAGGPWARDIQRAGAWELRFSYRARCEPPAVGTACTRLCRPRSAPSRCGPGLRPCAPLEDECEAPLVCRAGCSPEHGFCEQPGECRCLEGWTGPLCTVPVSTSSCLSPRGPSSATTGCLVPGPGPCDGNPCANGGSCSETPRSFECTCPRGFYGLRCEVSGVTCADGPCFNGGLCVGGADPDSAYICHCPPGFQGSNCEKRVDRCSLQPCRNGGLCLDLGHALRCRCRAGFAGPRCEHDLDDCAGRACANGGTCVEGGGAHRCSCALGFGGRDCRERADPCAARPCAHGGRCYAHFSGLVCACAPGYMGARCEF

B1: AS56788 scFv (scFv, V domains shown)
VH: EVQLVESGGGLVQPGGSLRLSCAASGFNISSYSMHWVRQAPGKGLEWVAYISSYYGYTYYADSVKGRFTISADTSKNTAYLQMNSLRAEDTAVYYCARYSYYYGMDYWGQGTLVTVSS
VL: DIQMTQSPSSLSASVGDRVTITCRASQSVSSAVAWYQQKPGKAPKLLIYSASSLYSGVPSRFSGSRSGTDFTLTISSLQPEDFATYYCQQHYAPSLITFGQGTKVEIK
notes: also called A556788
B2: AS56704 scFv (scFv, V domains shown)
VH: EVQLVESGGGLVQPGGSLRLSCAASGFNISSSYMHWVRQAPGKGLEWVAYIYPSYGYTSYADSVKGRFTISADTSKNTAYLQMNSLRAEDTAVYYCARGGYYYHGMDYWGQGTLVTVSS
VL: DIQMTQSPSSLSASVGDRVTITCRASQSVSSAVAWYQQKPGKAPKLLIYSASSLYSGVPSRFSGSRSGTDFTLTISSLQPEDFATYYCQQASWSPITFGQGTKVEIK
notes: also called A556704
B3: AS63931 HCAb (Fc fusion, not shown: a dimerising Fc or GST)
chain: EVQLAESGGGSVQAGGSLRLSCAGSFSGYGVSTMAWFRQAPGKEREGVAAITVGSGNTYYADSVTGRFTISRDNAKRTVYLQMNSLKPEDTAMYYCAAGWLSGGSWHVPGRYNYWGQGTQVTVSS
B4: AS64617 HCAb (Fc fusion, not shown: a dimerising Fc or GST)
chain: QVQLVESGGGSVQAGGSLRLSCAASGYTDRCSMAWYRQAPGKERELVSRISTSGFTNYAASVKGRFTISQDNAKNTVYLQMNSLNPGDTGMYYCAIIVGRTCSLNYWGNGILVTVSS
B5: AS69443 HCAb (Fc fusion, not shown: a dimerising Fc or GST)
chain: EVQLAESGGGSVQAGGSLRLSCSASGFTFDDSDMAWYRQAPGDGCDLVSTISSDGSTYYADSVKGRFTISQDNAKNTVYLQMHSLKPEDTAVYYCAADFLTGFYYSDSPHPAPCSASDFGYWGQGTQVTVSS
B6: AS64047 HCAb (Fc fusion, not shown: a dimerising Fc or GST)
chain: QVHLVESGGGSVQAGGSLRLSCAASQYVYRWDLMGWFRQAPGKEREAVAAVYTGDGITYYADSVKGRFSISQDNAKNTVYLQMNSLKPEDTGMYFCAAGFVSGGRWNQSYRYKYWGQGTQVTVSS
B7: AS64052 HCAb (Fc fusion, not shown: a dimerising Fc or GST)
chain: QVHLMESGGGSVQAGGSLRLSCAASGYTYRSNFMGWFRQAPGKEREGIATIHSGVATTYYADSVKGRFTISQDNAKNTVYLQMNSLKPEDTAMYYCAAGGPPANADRWYPLRPPGYNYWGQGTQVTVSS
B8: AS64062 HCAb (Fc fusion, not shown: a dimerising Fc or GST)
chain: QVRLVESGGGSVQVGGSLRLSCAASRSPYSSSRCMGWFRQAPGKEREGVAALYTGGGSTSYADSVKGRFTISQDNAKNTVYLQMNSLKPEDTAMYYCAAVVPRGGSCRLDERGYYHWGQGTQVTVSS

Each binder was assayed against T1, extracellular domain of human DLL3 … (assay: SPR (Biacore), same procedure as for the HCAbs, human DLL3 as analyte).

B1 was tested, and the Kd was 23 nM.

Going from B1 to B2, the koff falls from 0.003 s⁻¹ to 0.000559 s⁻¹ (5.4-fold).

Compared with B1, B2 is 2-fold lower in kon: 130000 M⁻¹ s⁻¹ for the first, 66000 M⁻¹ s⁻¹ for the second.

These binders were tested against T1, extracellular domain of human DLL3 … (assay: SPR (Biacore), captured antibody, human DLL3 as analyte).
Source text: The camel and humanized sdAb sequences were fused with human IgG1 hinge and Fc, resulting the chimeric and humanized HCAb sequences. The DNAs encoding these HCAbs were synthesized and inserted into pTT5 vector. HCAb expression plasmids were used to transfect HEK293 cells. Crude HCAb proteins secreted to the medium were subjected to SPR affinity measurement as follows: briefly, capturing antibody anti-human Fc pAb (GE healthcare) was immobilized on a Biacore™ CM5 chip to approximately 6,000 RU using EDC-activated amine coupling chemistry. HCAb of interest was captured for 300 seconds onto the sensorchip surface. Human DLL3 (AdipoGen, AG-40B-0151) was flowed over the sensorchip surface at a series of increasing concentrations. Association and dissociation phases were monitored. Captured antibody and antigen were removed between cycles using 10 mM Glycine-HCl, pH 2.0 buffer in order to ensure a fresh binding surface for the antigen. The resulting sensorgrams were fit globally using a 1:1 binding model in order to calculate on- and off-rates (ka and kd, respectively), as well as affinities (KD).

Compared with B3, B4 is 2.4-fold lower in Kd: 47 nM for the first, 20 nM for the second. The second binds more tightly here.

Going from B5 to B6, the Kd rises from 0.96 nM to 6.7 nM (7-fold).

Going from B7 to B8, the Kd rises from 4 nM to 6.9 nM (1.7-fold).

Compared with B3, B4 is 45-fold lower in koff: 0.17 s⁻¹ for the first, 0.0038 s⁻¹ for the second.

First: B5
Second: B6
The koff of the first is 11-fold lower: 9e-05 s⁻¹ for the first, 0.00096 s⁻¹ for the second.

Going from B7 to B8, the koff rises from 0.00041 s⁻¹ to 0.00071 s⁻¹ (1.7-fold).

Going from B3 to B4, the kon falls from 3.6e+06 M⁻¹ s⁻¹ to 190000 M⁻¹ s⁻¹ (19-fold).

B5 and B6 are within 1.5-fold of each other in kon: 94000 M⁻¹ s⁻¹ for the first, 140000 M⁻¹ s⁻¹ for the second.

B7 and B8 are the same in kon: 100000 M⁻¹ s⁻¹ for the first, 100000 M⁻¹ s⁻¹ for the second.
